Measurements published in publication PMC7658645.
pKd: −log10 of the molar value.

Key:
Assay in all cases: dot blot (nitrocellulose filter binding)
Settings in all cases: 5 mM Mg2+; Dot blot/aptamer blot: 20 mM Tris-HCl, 100 mM NaCl, 5 mM MgCl2, 0.1% BSA (pH not given), 50 nM aptamer in dot blot (membranes equilibrated at 4 C), blots 1 h …
[1] = molecular target: GST (glutathione S-transferase tag) (UniProt P08515)
[2] = tested on: MBP (maltose-binding protein tag)
[3] = molecular target: His-TrxA (His-tagged thioredoxin 1) (UniProt P0AA25)

## ATACGACTCACTATTAGGGACAAAGCTGACAACCCTTTCATAATCTAACTACATTTATGTGCTAGACTACTGACTAC [G1]
[1]
  pKd: 7.23

## ATACGACTCACTATTAGGGACCACATAAACATGCATCGCTCAATAACGGGATATTGTTGTGCTAGACTACTGACTACAA [M1]
[2]
  pKd: 7.07

## ATACGACTCACTATTAGGGATGTCCACCATATAGATCGATTTAAGTCCCTCGTTATTAATGCTAGACTACTGACTACAA [H1]
[3]
  pKd: 6.76
